Measurements from article PMC5704290.

Tested on: NCCC(=O)O
Test: purified protein
Conditions: pH 7.8; 25.0 °C

(Mycobacterium tuberculosis H37Rv) showed a Km of 610 ± 10 µM and a kcat/Km of 2600 M⁻¹ s⁻¹.
